Substitutions are numbered along the chain they refer to.
B1: Antibody 29 (antibody, V domains shown)
VH: QLQLQESGPGLVKPSETLSLTCTVSGGSITNSNYYWGWIRQPPGKGLEWIGSVYYSGTTYYNPSLKSRVTISVDPSKNQFSLKLSSVTAADTAVYYCVRESESYYYYGSDVWGQGTTVTVSS
VL: DIQMTQSPSSLSASVGDRVTITCRASQGINNYLAWFQQKPGKAPKSLIYAASSLQSGVPSKFSGSGSGTDFTLTISSLQPEDFATYYCQQYNSYPRTFGQGTKVEIK
notes: Same variable regions as Antibody 35
B2: Antibody 30 (antibody, V domains shown)
VH: EVQLVESGGGLVKPGGSLRLSCAASGFTFSSYNMNWVRQAPGRGLDWVSSISSSSSYIYYADSVKGRFTISRDNAKNSLYLQMNTLRAEDTAVYYCARDEEWELLTGFDYWGQGTLVTVSS
VL: B1 VL with S53N, S60L, R96I, K103R, V104L
notes: Same variable regions as Antibody 36
B3: Antibody 37 (antibody, V domains shown)
VH: EVQLVESGGGLVKPGGSLRLSCAASGISFSNAWMSWVRQAPGKGLEWVGRIKANPDGGTTDYAAPVKGRFTISRDDSKNTLYLQMNSLKTEDTAVYYCTTELDILLWFTSFDYWGQGTLVTVSS
VL: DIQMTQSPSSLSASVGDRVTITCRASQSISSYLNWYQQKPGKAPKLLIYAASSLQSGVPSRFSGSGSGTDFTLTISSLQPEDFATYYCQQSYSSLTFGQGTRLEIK
notes: Same variable regions as Antibody 38
B4: Antibody 39 (antibody, V domains shown)
VH: EVQLVESGGGLVQPGGSLRLSCAASGFTFSSYSMNWVRQAPGKGLEWVAYISSSTRTIFYADSVKGRFTISRDNAKNSLYLQMNSLRDEDTAFYYCARERSAFDYWGQGTLVTVSS
VL: SYVLTQPPSVSVAPGQTARITCGGDNIGGKSVHWYQQKPGQAPVMVVYDDSDRPSGIPERFAGSNSGNTATLAISRVEAGDEADYYCQVWEITSDHPAFGGGTRLTVL
notes: Same variable regions as Antibody 40
B5: Antibody 41 (antibody, V domains shown)
VH: QVQLVQSGSEVKKPGASVKVSCKASGYTFTNYYIHWVRQAPGQGLEWMGIITPSGGTTSYAQKFQGRVTMTRDTSTNTVYMGLSSLRSEDTAMYYCARAGVQLDRRGWFDPWGQGTLVTVSS
VL: SYELTQPPSVSVSPGQTASITCSGDKLGDKYVFWYQQKPGQSPVLVIYQDSKRPSGIPERFSGSNSGNTATLTISGTQTMDEADYYCQAWDSSTVGFGGGTKLAVL
notes: Same variable regions as Antibody 42
B6: Antibody 11 (antibody, V domains shown)
VH: QVQLVQSGAEVKKPGASVKVSCKSSGHTFTGYYMHWVRQAPGQGLEWMGWINPNSGDTNYAQKFQGRVTMTRDTSISTAYMEMSRLRSDDTAVYYCARDSQILWFGELGYWGQGTLVTVSS
VL: QAVVTQESALTTSPGETVTLTCRSSTGAVTASNYANWVQEKPDHLFTGLIGSTNNRAPGVPARFSGSLIGDKAALTITGAQTEDEAIYFCALWYSDHFVFGGGTKLTVL
notes: Same variable regions as Antibody 23
B7: Antibody 25 (antibody, V domains shown)
VH: QVQLQESGPGLVKPSETLSLTCTVSGGSISGNYWSWIRQPPGKGLEWIGYIYYSGSTNYNPSLKSRVTISVDTSKNQFSLKLSSVTAADTAVYYCARDLDYFTWGAYSDWYFDLWGRGTLVTVSS
VL: DIQMTQSPSSLSASVGDRVTITCRASQSISTFLNWYQQKPGKAPKLLIYATSSLRSGVPSRFSGSGSGTDFTLTISSLQPEDFAIYYCQQSYSTPRTFGQGTQVEIK
notes: Same variable regions as Antibody 31

These binders were tested against T1, cynomolgus monkey Protein S (cynomolgus monkey) (assay: BLI Octet; antibody on anti-human Fc probe; Protein S 7.81-500 nM; 4 mM CaCl2).
T1 construct: also called cyno Protein S
Experimental: (§1) Binding characteristics of the Protein S antibodies were also further characterized using Octet. Using the Octet System (Sartorius), the binding of each antibody to both human and cynomolgus monkey (“cyno” in Table 10) Protein S was determined. The human Fc antibodies were immobilized onto anti-human Fc capture probes by placing the probes into 10 μg/ml antibody solution in 10 mg/ml bovine serum albumin, 20 mM Tris pH 7.0, 150 mM NaCl, and 4 mM calcium chloride. […] Next, the probes were placed into buffer and the dissociation rates were measured.

How did the Kd turn out when B1 was run?
Its Kd is 20 nM.

What about the koff of the same binder?
The koff was 0.00177 s⁻¹.

And the kon?
The kon was 88200 M⁻¹ s⁻¹.

How did the Kd turn out when B2 was run?
Its Kd is 20.9 nM.

And the koff?
The koff was 0.00073 s⁻¹.

What about the kon of the same binder?
Its kon is 35000 M⁻¹ s⁻¹.

With B3 as the binder, how does the Kd read?
The Kd was 0.672 nM.

And the koff?
Its koff is 0.000119 s⁻¹.

What about the kon of the same binder?
Its kon is 177000 M⁻¹ s⁻¹.

With B4 as the binder, how does the Kd read?
The Kd was 0.419 nM.

And the koff?
The koff was 8.02e-05 s⁻¹.

And the kon?
The kon was 191000 M⁻¹ s⁻¹.

What does the source list for B5?
Kd: 19.5 nM; koff: 0.00188 s⁻¹; kon: 96400 M⁻¹ s⁻¹

Which results are given for B6?
Kd: < 0.001 nM; koff: < 1e-07 s⁻¹; kon: 82100 M⁻¹ s⁻¹

With B7 as the binder, how does the Kd read?
The Kd was under 0.001 nM.

What about the koff of the same binder?
Its koff is under 1e-07 s⁻¹.

And the kon?
The kon was 124000 M⁻¹ s⁻¹.

What follows are binders tested against T2, human Protein S (human, UniProt P07225 42-676) in the same assay as above.
T2 construct: also called ProS; ProS1
T2 sequence: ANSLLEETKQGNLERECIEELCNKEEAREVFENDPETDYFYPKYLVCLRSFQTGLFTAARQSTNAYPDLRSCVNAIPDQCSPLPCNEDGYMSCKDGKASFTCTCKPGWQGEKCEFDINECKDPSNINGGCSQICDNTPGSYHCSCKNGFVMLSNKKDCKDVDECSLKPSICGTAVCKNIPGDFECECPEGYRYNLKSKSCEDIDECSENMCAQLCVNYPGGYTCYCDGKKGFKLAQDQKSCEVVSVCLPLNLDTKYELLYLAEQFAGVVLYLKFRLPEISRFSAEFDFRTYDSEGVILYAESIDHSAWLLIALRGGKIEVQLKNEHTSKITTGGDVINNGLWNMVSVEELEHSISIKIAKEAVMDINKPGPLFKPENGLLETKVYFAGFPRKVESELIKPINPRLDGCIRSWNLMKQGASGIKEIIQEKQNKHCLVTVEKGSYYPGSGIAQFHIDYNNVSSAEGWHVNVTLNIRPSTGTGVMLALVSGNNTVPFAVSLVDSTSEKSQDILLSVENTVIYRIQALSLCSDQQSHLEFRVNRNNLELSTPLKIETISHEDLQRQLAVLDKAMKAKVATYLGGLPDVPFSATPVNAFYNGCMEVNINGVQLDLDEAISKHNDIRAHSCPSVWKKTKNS
Experimental: as §1

What does the source list for B1?
Kd: 21.1 nM; koff: 0.00173 s⁻¹; kon: 81900 M⁻¹ s⁻¹

B2 was tested. Which Kd did it give?
Its Kd is 11.5 nM.

What about the koff of the same binder?
Its koff is 0.000279 s⁻¹.

And the kon?
The kon was 24200 M⁻¹ s⁻¹.

Which Kd does the source give for B3 here?
The Kd was 0.382 nM.

And the koff?
The koff was 8.32e-05 s⁻¹.

And the kon?
Its kon is 218000 M⁻¹ s⁻¹.

B4 was tested. Which Kd did it give?
The Kd was 0.25 nM.

What about the koff of the same binder?
The koff was 5.84e-05 s⁻¹.

What about the kon of the same binder?
The kon was 234000 M⁻¹ s⁻¹.

Which Kd does the source give for B5 here?
Its Kd is 13.8 nM.

What about the koff of the same binder?
The koff was 0.0011 s⁻¹.

What about the kon of the same binder?
Its kon is 80000 M⁻¹ s⁻¹.

Which results are given for B6?
Kd: 0.399 nM; koff: 3.4e-05 s⁻¹; kon: 85200 M⁻¹ s⁻¹

With B7 as the binder, how does the Kd read?
Its Kd is under 0.001 nM.

And the koff?
Its koff is under 1e-07 s⁻¹.

And the kon?
Its kon is 143000 M⁻¹ s⁻¹.

The binders below were run against T2, human Protein S (assay: SPR Biacore X100; antibody captured by anti-human IgG (Fc); Protein S 2-128 nM; 5 mM CaCl2; 1:1 fit).
Experimental: Binding characteristics of the Protein S antibodies were also determined. Binding interaction analysis was obtained by Surface Plasmon Resonance in a Biacore X100 instrument. The human anti-IgG (Fc) antibody was immobilized to the carboxymethylated dextran membrane on the sensor chip surface (CM5) via the free amine method for a contact time of 420 seconds. Human anti-IgG antibody at 25 μg/mL in 0.15 M NaCl was immobilized to 9,785 RU in 10 mM sodium acetate pH 5.0.
Dilution and running buffer were as follows: Hbs−EP+5 mM CaCl₂. Regeneration was obtained by 3 M MgCl₂. Binding constants (ka, kd, and KD) were determined using the Biacore X100 evaluation software, assuming a 1:1 interaction of Protein S and the tested monoclonal antibody under investigation.

For B6, which Kd is on record?
Its Kd is 9.6 nM.

What about the koff of the same binder?
Its koff is 0.00113 s⁻¹.

And the kon?
The kon was 116000 M⁻¹ s⁻¹.

The binders below were run against T3, Protein S-C4BP complex (human, UniProt P04003 49-597; P20851 18-252) (assay: BLI Octet; antibody on anti-human Fc probe).
T3 construct: C4BP preparation from Complement Technologies that contains Protein S precomplexed to human C4BP; also called ProS-C4BP Complex; C4BP-Protein S complex
T3 sequence 1: T2 sequence
T3 sequence 2: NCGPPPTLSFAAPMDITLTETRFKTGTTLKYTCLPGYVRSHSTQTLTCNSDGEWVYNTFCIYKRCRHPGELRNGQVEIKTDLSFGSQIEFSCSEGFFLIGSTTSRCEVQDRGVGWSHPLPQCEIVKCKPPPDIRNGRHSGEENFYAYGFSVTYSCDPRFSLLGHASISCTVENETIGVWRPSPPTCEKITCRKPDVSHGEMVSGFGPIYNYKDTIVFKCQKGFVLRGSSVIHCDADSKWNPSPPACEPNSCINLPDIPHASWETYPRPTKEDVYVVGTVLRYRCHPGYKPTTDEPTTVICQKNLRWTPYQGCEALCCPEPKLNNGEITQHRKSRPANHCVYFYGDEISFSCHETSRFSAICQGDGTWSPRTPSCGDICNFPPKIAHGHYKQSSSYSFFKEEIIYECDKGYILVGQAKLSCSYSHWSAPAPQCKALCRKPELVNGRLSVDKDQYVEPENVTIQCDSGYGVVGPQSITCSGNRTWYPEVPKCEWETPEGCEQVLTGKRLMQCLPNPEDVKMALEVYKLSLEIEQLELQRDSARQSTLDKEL
T3 sequence 3: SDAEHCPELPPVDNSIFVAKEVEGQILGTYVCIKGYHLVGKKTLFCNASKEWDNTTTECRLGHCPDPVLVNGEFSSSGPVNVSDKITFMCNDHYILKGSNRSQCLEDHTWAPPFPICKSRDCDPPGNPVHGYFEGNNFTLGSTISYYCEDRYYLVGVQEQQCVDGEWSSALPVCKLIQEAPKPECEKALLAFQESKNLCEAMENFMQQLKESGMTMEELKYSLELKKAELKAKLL
Experimental: The Octet assay was used to determine the capability of the Protein S antibodies provided herein to bind to Protein S either alone, or when complexed to C4BP.
Using the Octet System (Sartorius), the binding of each antibody to both Protein S and Protein S in complex with C4BP was determined. It had previously been determined that the C4BP preparation from Complement Technologies contains Protein S precomplexed to human C4BP. Therefore, this preparation represented the Protein S-C4BP complex and plasma purified Protein S from Haematologic Technologies was used as the source of free Protein S. The human Fc antibodies were immobilized onto anti-human Fc capture probes by placing the probes into 10 μg/ml antibody solution in 10 mg/ml bovine serum albumin, 20 mM Tris pH 7.0, 150 mM NaCl, and 4 mM calcium chloride. Then the bound antibodies were placed into solutions containing either 75 μg/ml Protein S or 100 μg/ml C4BP (C4BP-Protein S complex).

Does B1 bind?
Result: no binding (tested: 100 µg/ml C4BP (C4BP-Protein S complex))

Does B2 bind?
Result: no binding (tested: 100 µg/ml C4BP (C4BP-Protein S complex))

Does B3 bind?
Result: no binding (tested: 100 µg/ml C4BP (C4BP-Protein S complex))

Does B4 bind?
Result: no binding (tested: 100 µg/ml C4BP (C4BP-Protein S complex))

Does B5 bind?
Result: no binding (tested: 100 µg/ml C4BP (C4BP-Protein S complex))

Does B6 bind?
Result: no binding (tested: 100 µg/ml C4BP (C4BP-Protein S complex))

Does B7 bind?
Result: no binding (tested: 100 µg/ml C4BP (C4BP-Protein S complex))
